Experimental data from article PMC7506556, “Structure and function of bacteriophage CBA120 ORF211 (TSP2), the determinant of phage specificity towards E. coli O157:H7” (Scientific Reports, 2020).

B1: D506A:D571A TSP2 (enzyme, UniProt G3M190 1-921, looked up)
chain: MTRNVEELFGGVITAPHQIPFTYKSNVGGETFLSLPFYPVTGVVTINGGMQVPLDNFEIEGNTLNLGRALSKGDVVYCLFDKILSPEDTAKGIRIYKFQAVGGETEFTPDFTSYGVQSLYIGGEYKTPEIEYSYDSTTGKVSLQTALSAGVWVVAEMSVKQPNISPAFDRSIQEIARSANVKDSEVIVSTDTISLLDGKKVVYDIATQTSYGLPTIPDGSVISSVSAGKLNYNPGDVQVDLLPLEDSFINVINTLGRNDGAKYIGECHSVADLRNTEPTMDGQRIILKQHTAGTLLGGGVFRALIDGTGKTDNNGTVIKTVGGAAWLRVNADRVNPFMFGALGGSNDDTIPVQSCVDSGKATQLTDAHYVSNIQLKYNTSSIYGSGLHYSRLHQLPSATGNCITIKDTCSLIVLDAFGVYGTGAQQGTSFTAGTTGIYVETPSGLSADYPFHTTADPRRDLCISKVHIAGFDEYGLNIDSGNFSVTTDSLLVNHINQVGVRCATTAWTWTNIQVNTCGKQCLVLDGCGNGRIIGGKFIWANWQPYGTVGQFPGITINNSQNMVINGIEVQACGGNGIEISESYSISMNGLNTNRNGINANNTFYNIVFNKSDAVINGFVGLNYAANSGSGANSSAGNFQFLSNDCSVTINGVVETGYMGINFIGDNNIINPTNSDLSINGLVNYSKTGLQTMNETPTFDGVSTTPVYVSVPSSVGQVNGLRLSQANKDKLLYSRTAGPEGITMAAVIVPTISGAEVFNFMAIGSGFSDTSNSLHLQLVIDASGKQTIALLLGGDGTTQILSGDLPNDLKLQSGVPYHIAIGAKPGYFWWSILNIQTGKRIRRSFRGAYLAVPFNSIFGLTSSLTFFSDSNAGGDACSGVGAKVYVGMFSSENDYVASRYYNLINPVDPTKLISYRILDSSI
notes: Made by Q5 site-directed mutagenesis of the TSP2 plasmid; also called TSP2 D506A:D571A double mutant; source: E. coli BL21(DE3), purified similar to wild type TSPs
B2: D506N:D571A TSP2 (enzyme, UniProt G3M190 1-921, looked up)
chain: MTRNVEELFGGVITAPHQIPFTYKSNVGGETFLSLPFYPVTGVVTINGGMQVPLDNFEIEGNTLNLGRALSKGDVVYCLFDKILSPEDTAKGIRIYKFQAVGGETEFTPDFTSYGVQSLYIGGEYKTPEIEYSYDSTTGKVSLQTALSAGVWVVAEMSVKQPNISPAFDRSIQEIARSANVKDSEVIVSTDTISLLDGKKVVYDIATQTSYGLPTIPDGSVISSVSAGKLNYNPGDVQVDLLPLEDSFINVINTLGRNDGAKYIGECHSVADLRNTEPTMDGQRIILKQHTAGTLLGGGVFRALIDGTGKTDNNGTVIKTVGGAAWLRVNADRVNPFMFGALGGSNDDTIPVQSCVDSGKATQLTDAHYVSNIQLKYNTSSIYGSGLHYSRLHQLPSATGNCITIKDTCSLIVLDAFGVYGTGAQQGTSFTAGTTGIYVETPSGLSADYPFHTTADPRRDLCISKVHIAGFDEYGLNIDSGNFSVTTDSLLVNHINQVGVRCATTNWTWTNIQVNTCGKQCLVLDGCGNGRIIGGKFIWANWQPYGTVGQFPGITINNSQNMVINGIEVQACGGNGIEISESYSISMNGLNTNRNGINANNTFYNIVFNKSDAVINGFVGLNYAANSGSGANSSAGNFQFLSNDCSVTINGVVETGYMGINFIGDNNIINPTNSDLSINGLVNYSKTGLQTMNETPTFDGVSTTPVYVSVPSSVGQVNGLRLSQANKDKLLYSRTAGPEGITMAAVIVPTISGAEVFNFMAIGSGFSDTSNSLHLQLVIDASGKQTIALLLGGDGTTQILSGDLPNDLKLQSGVPYHIAIGAKPGYFWWSILNIQTGKRIRRSFRGAYLAVPFNSIFGLTSSLTFFSDSNAGGDACSGVGAKVYVGMFSSENDYVASRYYNLINPVDPTKLISYRILDSSI
notes: Made by Q5 site-directed mutagenesis of the TSP2 plasmid; source: E. coli BL21(DE3), purified similar to wild type TSPs
B3: D506N:E568A:D571N TSP2 (enzyme, UniProt G3M190 1-921, looked up)
chain: MTRNVEELFGGVITAPHQIPFTYKSNVGGETFLSLPFYPVTGVVTINGGMQVPLDNFEIEGNTLNLGRALSKGDVVYCLFDKILSPEDTAKGIRIYKFQAVGGETEFTPDFTSYGVQSLYIGGEYKTPEIEYSYDSTTGKVSLQTALSAGVWVVAEMSVKQPNISPAFDRSIQEIARSANVKDSEVIVSTDTISLLDGKKVVYDIATQTSYGLPTIPDGSVISSVSAGKLNYNPGDVQVDLLPLEDSFINVINTLGRNDGAKYIGECHSVADLRNTEPTMDGQRIILKQHTAGTLLGGGVFRALIDGTGKTDNNGTVIKTVGGAAWLRVNADRVNPFMFGALGGSNDDTIPVQSCVDSGKATQLTDAHYVSNIQLKYNTSSIYGSGLHYSRLHQLPSATGNCITIKDTCSLIVLDAFGVYGTGAQQGTSFTAGTTGIYVETPSGLSADYPFHTTADPRRDLCISKVHIAGFDEYGLNIDSGNFSVTTDSLLVNHINQVGVRCATTNWTWTNIQVNTCGKQCLVLDGCGNGRIIGGKFIWANWQPYGTVGQFPGITINNSQNMVINGIAVQNCGGNGIEISESYSISMNGLNTNRNGINANNTFYNIVFNKSDAVINGFVGLNYAANSGSGANSSAGNFQFLSNDCSVTINGVVETGYMGINFIGDNNIINPTNSDLSINGLVNYSKTGLQTMNETPTFDGVSTTPVYVSVPSSVGQVNGLRLSQANKDKLLYSRTAGPEGITMAAVIVPTISGAEVFNFMAIGSGFSDTSNSLHLQLVIDASGKQTIALLLGGDGTTQILSGDLPNDLKLQSGVPYHIAIGAKPGYFWWSILNIQTGKRIRRSFRGAYLAVPFNSIFGLTSSLTFFSDSNAGGDACSGVGAKVYVGMFSSENDYVASRYYNLINPVDPTKLISYRILDSSI
notes: as for B2
B4: D506N:E568Q:D571N TSP2 (enzyme, UniProt G3M190 1-921, looked up)
chain: MTRNVEELFGGVITAPHQIPFTYKSNVGGETFLSLPFYPVTGVVTINGGMQVPLDNFEIEGNTLNLGRALSKGDVVYCLFDKILSPEDTAKGIRIYKFQAVGGETEFTPDFTSYGVQSLYIGGEYKTPEIEYSYDSTTGKVSLQTALSAGVWVVAEMSVKQPNISPAFDRSIQEIARSANVKDSEVIVSTDTISLLDGKKVVYDIATQTSYGLPTIPDGSVISSVSAGKLNYNPGDVQVDLLPLEDSFINVINTLGRNDGAKYIGECHSVADLRNTEPTMDGQRIILKQHTAGTLLGGGVFRALIDGTGKTDNNGTVIKTVGGAAWLRVNADRVNPFMFGALGGSNDDTIPVQSCVDSGKATQLTDAHYVSNIQLKYNTSSIYGSGLHYSRLHQLPSATGNCITIKDTCSLIVLDAFGVYGTGAQQGTSFTAGTTGIYVETPSGLSADYPFHTTADPRRDLCISKVHIAGFDEYGLNIDSGNFSVTTDSLLVNHINQVGVRCATTNWTWTNIQVNTCGKQCLVLDGCGNGRIIGGKFIWANWQPYGTVGQFPGITINNSQNMVINGIQVQNCGGNGIEISESYSISMNGLNTNRNGINANNTFYNIVFNKSDAVINGFVGLNYAANSGSGANSSAGNFQFLSNDCSVTINGVVETGYMGINFIGDNNIINPTNSDLSINGLVNYSKTGLQTMNETPTFDGVSTTPVYVSVPSSVGQVNGLRLSQANKDKLLYSRTAGPEGITMAAVIVPTISGAEVFNFMAIGSGFSDTSNSLHLQLVIDASGKQTIALLLGGDGTTQILSGDLPNDLKLQSGVPYHIAIGAKPGYFWWSILNIQTGKRIRRSFRGAYLAVPFNSIFGLTSSLTFFSDSNAGGDACSGVGAKVYVGMFSSENDYVASRYYNLINPVDPTKLISYRILDSSI
notes: as for B2
B5: D506N:D571N TSP2 (enzyme, UniProt G3M190 1-921, looked up)
chain: MTRNVEELFGGVITAPHQIPFTYKSNVGGETFLSLPFYPVTGVVTINGGMQVPLDNFEIEGNTLNLGRALSKGDVVYCLFDKILSPEDTAKGIRIYKFQAVGGETEFTPDFTSYGVQSLYIGGEYKTPEIEYSYDSTTGKVSLQTALSAGVWVVAEMSVKQPNISPAFDRSIQEIARSANVKDSEVIVSTDTISLLDGKKVVYDIATQTSYGLPTIPDGSVISSVSAGKLNYNPGDVQVDLLPLEDSFINVINTLGRNDGAKYIGECHSVADLRNTEPTMDGQRIILKQHTAGTLLGGGVFRALIDGTGKTDNNGTVIKTVGGAAWLRVNADRVNPFMFGALGGSNDDTIPVQSCVDSGKATQLTDAHYVSNIQLKYNTSSIYGSGLHYSRLHQLPSATGNCITIKDTCSLIVLDAFGVYGTGAQQGTSFTAGTTGIYVETPSGLSADYPFHTTADPRRDLCISKVHIAGFDEYGLNIDSGNFSVTTDSLLVNHINQVGVRCATTNWTWTNIQVNTCGKQCLVLDGCGNGRIIGGKFIWANWQPYGTVGQFPGITINNSQNMVINGIEVQNCGGNGIEISESYSISMNGLNTNRNGINANNTFYNIVFNKSDAVINGFVGLNYAANSGSGANSSAGNFQFLSNDCSVTINGVVETGYMGINFIGDNNIINPTNSDLSINGLVNYSKTGLQTMNETPTFDGVSTTPVYVSVPSSVGQVNGLRLSQANKDKLLYSRTAGPEGITMAAVIVPTISGAEVFNFMAIGSGFSDTSNSLHLQLVIDASGKQTIALLLGGDGTTQILSGDLPNDLKLQSGVPYHIAIGAKPGYFWWSILNIQTGKRIRRSFRGAYLAVPFNSIFGLTSSLTFFSDSNAGGDACSGVGAKVYVGMFSSENDYVASRYYNLINPVDPTKLISYRILDSSI
notes: Made by Q5 site-directed mutagenesis of the TSP2 plasmid; also called TSP2 D506N:D571N double mutant; TSP2 asparagine double mutant; source: E. coli BL21(DE3), purified similar to wild type TSPs
B6: D506A:D571N TSP2 (enzyme, UniProt G3M190 1-921, looked up)
chain: MTRNVEELFGGVITAPHQIPFTYKSNVGGETFLSLPFYPVTGVVTINGGMQVPLDNFEIEGNTLNLGRALSKGDVVYCLFDKILSPEDTAKGIRIYKFQAVGGETEFTPDFTSYGVQSLYIGGEYKTPEIEYSYDSTTGKVSLQTALSAGVWVVAEMSVKQPNISPAFDRSIQEIARSANVKDSEVIVSTDTISLLDGKKVVYDIATQTSYGLPTIPDGSVISSVSAGKLNYNPGDVQVDLLPLEDSFINVINTLGRNDGAKYIGECHSVADLRNTEPTMDGQRIILKQHTAGTLLGGGVFRALIDGTGKTDNNGTVIKTVGGAAWLRVNADRVNPFMFGALGGSNDDTIPVQSCVDSGKATQLTDAHYVSNIQLKYNTSSIYGSGLHYSRLHQLPSATGNCITIKDTCSLIVLDAFGVYGTGAQQGTSFTAGTTGIYVETPSGLSADYPFHTTADPRRDLCISKVHIAGFDEYGLNIDSGNFSVTTDSLLVNHINQVGVRCATTAWTWTNIQVNTCGKQCLVLDGCGNGRIIGGKFIWANWQPYGTVGQFPGITINNSQNMVINGIEVQNCGGNGIEISESYSISMNGLNTNRNGINANNTFYNIVFNKSDAVINGFVGLNYAANSGSGANSSAGNFQFLSNDCSVTINGVVETGYMGINFIGDNNIINPTNSDLSINGLVNYSKTGLQTMNETPTFDGVSTTPVYVSVPSSVGQVNGLRLSQANKDKLLYSRTAGPEGITMAAVIVPTISGAEVFNFMAIGSGFSDTSNSLHLQLVIDASGKQTIALLLGGDGTTQILSGDLPNDLKLQSGVPYHIAIGAKPGYFWWSILNIQTGKRIRRSFRGAYLAVPFNSIFGLTSSLTFFSDSNAGGDACSGVGAKVYVGMFSSENDYVASRYYNLINPVDPTKLISYRILDSSI
notes: as for B2

Biological target: the molecule itself
Test: not stated; purified TSP2 site-directed mutants; how the trimeric state was shown is not told
In the case of B1, the “stoichiometry N” value is reported as 3. B2 was tested, and the “stoichiometry N” value was 3. For B3, the “stoichiometry N” value was 3. With B4 the “stoichiometry N” value was 3. For B5, the “stoichiometry N” value was 3. With B6 the “stoichiometry N” value was 3.
